Measurements as given in patent US20190153097A1 (AGENCY FOR SCIENCE TECHNOLOGY AND RESEARCH, published 2019).

Molecular target: T1, human CTLA-4 (human, UniProt P16410 36-161, limits assumed)
T1 construct: Soluble protein, construct not described; also called huCTLA-4; CD152
Experiment: blocking ELISA: CD80 coated, antibody pre-incubated with human CTLA-4, binding of CTLA-4 to CD80 detected

T1 sequence (P16410 36-161 limits assumed): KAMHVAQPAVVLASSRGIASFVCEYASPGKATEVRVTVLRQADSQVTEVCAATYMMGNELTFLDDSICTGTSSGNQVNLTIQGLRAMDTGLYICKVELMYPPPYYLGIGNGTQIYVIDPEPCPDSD

- IC50 (read off the curve): ~2 nM
B1: L3D10 (commercial mouse anti-human CTLA-4 IgG1) (antibody, V domains shown)
VH: QVQLKESGPGLVAPSQSLSITCTVSGFSLTSYGLSWVRQPPGKGLEWLGVIWYDGNTNFHSALISRLTISKDNSKSQVFLELNSLQTDDTATYYCAKTEGHYYGSNYGYYALDYWGQGTSVTVSS
VL: DIQMTQSPASLSVSVGETVTITCRASENIYSNLAWYQQKQGKSPQLLVYAATNLADGVPSRFSGSGSGTQYSLKINSLQSEDFGTYFCQHLWGTPYTFGGGTKLEIK
